The source of these data is US20040053822A1 (published 2004).

As a reminder, the IC50 is the point on the concentration scale where inhibition reaches its midpoint. Lower therefore signals greater potency in that assay.

The target of the first assay is HLA-DRB1*0101 (human). Description: inhibition of 125I-probe binding to purified HLA-DR.
LLIIVLAIIAIEGDC [MAGE2.201 (15-mer)]: the IC50 was ≤ 1 µM.
Same read-out and setting: the figure for LIIVLAIIAIEGDCA [MAGE2.202 (15-mer)] is ≤ 1 µM.

The target of another assay is HLA-B*0702 (human). Description: competition vs 125I probe peptide, purified HLA.
With FPKTGLLI [MAGE2.196.F1I8 FPKTGLLI], the 50% inhibitory concentration (IC50) is 0.134 µM.
For FPLWSQSI [MAGE3.77.F1 FPLWSQSI], the IC50 stood at 0.122 µM.
Consider FPTTMNYPL [MAGE3.71.F1 FPTTMNYPL], for which the IC50 is 0.0064 µM. Against the preceding molecule, the IC50 is about 19-fold lower.
Still for that read-out and setting: the figure for FPTTMNYPI [MAGE3.71.F1I9 FPTTMNYPI] is 0.059 µM; for FPTTMNYPLW [MAGE3.71.F1 FPTTMNYPLW] it is 0.22 µM; for FPIGHLYIFA [MAGE3.170.F1 FPIGHLYIFA] it is 0.039 µM.
In the case of FPKAGLLIIV [MAGE3.196.F1 FPKAGLLIIV], the 50% inhibitory concentration (IC50) was found to be 0.22 µM.
Same read-out and setting: with FPRALIETSYI [MAGE2.274.F1I11 FPRALIETSYI] the figure was 0.0074 µM.

Another assay concerns the target HLA-B*3501 (human). Briefly: competition vs 125I probe peptide, purified HLA.
Consider FPLWSQSI [MAGE3.77.F1 FPLWSQSI], for which the 50% inhibitory concentration (IC50) was found to be 1.01 µM.
Still for that read-out and setting: with FPHISYPPI [MAGE3.296.F1I9 FPHISYPPI] the figure was 0.36 µM; with FPTTMNYPL [MAGE3.71.F1 FPTTMNYPL], 0.0045 µM.
On the same count and under the same terms, with FPIGHLYIFA [MAGE3.170.F1 FPIGHLYIFA] the figure was 0.051 µM; with FPIGHLYIFI [MAGE3.170.F1I10 FPIGHLYIFI], 0.139 µM; with FPKAGLLIIV [MAGE3.196.F1 FPKAGLLIIV], 0.878 µM.
The molecule FPRALIETSYI [MAGE2.274.F1I11 FPRALIETSYI] registered an IC50 of 3.6 µM.
On the same count and under the same terms, with FPRALVETSYV [MAGE3.274.F1 FPRALVETSYV] the figure was 4.24 µM.
The same measure, in the same setting: the figure for FPRALIETSYV [MAGE2.274.F1 FPRALIETSYV] is 4.5 µM.
On the same count and under the same terms, the figure for FPRALVETSYI [MAGE3.274.F1I11 FPRALVETSYI] is 5.54 µM.

For the next assay, the target named is HLA-B*5101 (human). Briefly: competition vs 125I probe peptide, purified HLA.
FPHISYPPL [MAGE2.296.F1 FPHISYPPL] showed an IC50 of 0.177 µM.
Same read-out and setting: the figure for FPTTMNYPL [MAGE3.71.F1 FPTTMNYPL] is 0.423 µM; for FPIGHLYII [MAGE3.170.F1I9 FPIGHLYII] it is 0.005 µM.
The same measure, in the same setting: with FPIGHLYIFA [MAGE3.170.F1 FPIGHLYIFA] the figure was 0.056 µM; with FPKAGLLIIV [MAGE3.196.F1 FPKAGLLIIV], 0.19 µM.
On the same count and under the same terms, with FPKAGLLIII [MAGE3.196.F1I10 FPKAGLLIII] the figure was 0.065 µM; with FPRALIETSYI [MAGE2.274.F1I11 FPRALIETSYI], 0.07 µM.
With FPRALIETSYV [MAGE2.274.F1 FPRALIETSYV], the half-inhibitory concentration (IC50) came to 0.128 µM.

In another assay the target is HLA-B*5301 (human). Description: competition vs 125I probe peptide, purified HLA.
On to FPQGASSI [MAGE3.64.F1 FPQGASSI], for which the IC50 was determined as 3 µM. This counts as single-digit micromolar.
In turn, FPKAGLLI [MAGE3.196.F1I8 FPKAGLLI] displayed an IC50 of 0.775 µM.
On the same count and under the same terms, the figure for FPKTGLLI [MAGE2.196.F1I8 FPKTGLLI] is 3.32 µM; for FPLWSQSI [MAGE3.77.F1 FPLWSQSI] it is 0.245 µM.
The same measure, in the same setting: the figure for FPHISYPPI [MAGE3.296.F1I9 FPHISYPPI] is 0.233 µM.
With FPTTMNYPL [MAGE3.71.F1 FPTTMNYPL], the IC50 is 0.039 µM.
For FPTTMNYPI [MAGE3.71.F1I9 FPTTMNYPI], the IC50 came to 0.0085 µM.
Same read-out and setting: with FPIGHLYIFA [MAGE3.170.F1 FPIGHLYIFA] the figure was 0.179 µM; with FPIGHLYIFI [MAGE3.170.F1I10 FPIGHLYIFI], 0.0085 µM; with FPKAGLLIIV [MAGE3.196.F1 FPKAGLLIIV], 4.65 µM.
Still for that read-out and setting: the figure for FPKAGLLIII [MAGE3.196.F1I10 FPKAGLLIII] is 0.846 µM.
On the same count and under the same terms, with FPRALIETSYI [MAGE2.274.F1I11 FPRALIETSYI] the figure was 0.465 µM; with FPRALIETSYV [MAGE2.274.F1 FPRALIETSYV], 7.75 µM; with FPRALVETSYI [MAGE3.274.F1I11 FPRALVETSYI], 0.62 µM.

The target in a further assay is HLA-B*5401 (human). Briefly: competition vs 125I probe peptide, purified HLA.
FPQGASSI [MAGE3.64.F1 FPQGASSI] had an IC50 of 0.4 µM.
Still for that read-out and setting: with FPKAGLLI [MAGE3.196.F1I8 FPKAGLLI] the figure was 0.046 µM.
The same measure, in the same setting: with FPHISYPPI [MAGE3.296.F1I9 FPHISYPPI] the figure was 0.0014 µM.
On the same count and under the same terms, the figure for FPTTMNYPL [MAGE3.71.F1 FPTTMNYPL] is 0.003 µM.
Consider FPTTMNYPI [MAGE3.71.F1I9 FPTTMNYPI], for which the IC50 is 0.0015 µM.
The same measure, in the same setting: the figure for FPIGHLYII [MAGE3.170.F1I9 FPIGHLYII] is 0.0006 µM.
On the same count and under the same terms, the figure for FPIGHLYIFA [MAGE3.170.F1 FPIGHLYIFA] is 0.0004 µM.
Same read-out and setting: the figure for FPKAGLLIIV [MAGE3.196.F1 FPKAGLLIIV] is 0.0011 µM.
Regarding FPRALIETSYI [MAGE2.274.F1I11 FPRALIETSYI], the concentration for half-maximal inhibition (IC50) was found to be 0.127 µM.
For the molecule FPRALVETSYI [MAGE3.274.F1I11 FPRALVETSYI], the half-maximal inhibitory concentration (IC50) was found to be 0.059 µM. This IC50 is about 2.2-fold lower than that of the molecule before.

A further assay deals with HLA-A*0201 (human). Description: competition with 125I probe peptide, purified HLA.
Consider HLYIFATCLGL [MAGE3.174 11-mer HLYIFATCLGL], for which the 50% inhibitory concentration (IC50) turned out to be 0.056 µM.

The next assay concerns the target HLA-A*0202 (human). Description: competition with 125I probe peptide, purified HLA.
HLYIFATCLGL [MAGE3.174 11-mer HLYIFATCLGL] displayed an IC50 of 0.741 µM.
Still for that read-out and setting: with KIWEELSML [MAGE2.220 9-mer KIWEELSML] the figure was 0.642 µM; with ALIETSYVKV [MAGE2.277 10-mer ALIETSYVKV], 0.729 µM.

The next assay deals with HLA-A*0203 (human). Briefly: competition with 125I probe peptide, purified HLA.
Molecule KIWEELSML [MAGE2.220 9-mer KIWEELSML] had an IC50 of 0.175 µM.
Still for that read-out and setting: the figure for KLAELVHFL [MAGE3.112L2 KLAELVHFL] is 0.0059 µM; for KMAELVHFV [MAGE3.112M2V9 KMAELVHFV] it is 0.046 µM.

In a further assay the target is HLA-A*0206 (human). Description: competition with 125I probe peptide, purified HLA.
Regarding KMAELVHFV [MAGE3.112M2V9 KMAELVHFV], the concentration for half-maximal inhibition (IC50) turned out to be 0.039 µM.
The molecule ALIETSYVKV [MAGE2.277 10-mer ALIETSYVKV] displayed an IC50 of 1.95 µM.

The next assay concerns the target HLA-A*6802 (human). Description: competition with 125I probe peptide, purified HLA.
On to KLAELVHFL [MAGE3.112L2 KLAELVHFL], for which the IC50 was determined as 0.4 µM.
Still for that read-out and setting: the figure for KLAELVHFV [MAGE3.112L2V9 KLAELVHFV] is 0.073 µM; for ALIETSYVKV [MAGE2.277 10-mer ALIETSYVKV] it is 3.08 µM.

For a further assay, the target named is HLA-DRB1*0301 (human). Briefly: inhibition of 125I probe peptide binding to purified HLA.
In the case of IIAIEGDCAPEEKIW, the relative binding ratio was 0.066 IC50 standard/IC50 peptide.

A further assay addresses HLA-DRB1*0301 (human). The description is as above. This is another data set of the same source.
Regarding IIAIEGDCAPEEKIW, the relative binding ratio was 0.066 IC50 standard/IC50 peptide.

Another assay addresses HLA-A*0201 (human). Description: competition with 125I probe peptide, purified HLA, gel filtration. A general note: In gel filtration, larger molecules generally elute earlier.
GLEARGEAL [MAGE3 peptide, position 15, 9 amino acids]: the relative binding ratio is 0.0001 ratio (IC50 standard / IC50 test peptide).

The next assay concerns the target HLA-A*0201 (human). Description: competition with 125I-labelled probe peptide for purified HLA-A*0201.
For GLEARGEAL [MAGE2 peptide, position 15, 9 amino acids], the relative binding ratio turned out to be 0.0001 ratio.
